Reference: patent US20050234225A1

How the values were obtained:
cell-surface KDR (human) = cell-surface KDR (human) (UniProt P35968); test: cell-based or functional assay
[1] = target: KDR-alkaline phosphatase (AP) soluble fusion protein (human) (UniProt P35968); test: BIAcore SPR, KDR immobilized
[2] = target: KDR-alkaline phosphatase (AP) soluble fusion protein (human) (UniProt P35968); test: competitive blocking ELISA: antibody pre-incubated with KDR-AP, then binding of KDR-AP to immobilised VEGF165, A405

Chain of KDR-alkaline phosphatase (AP) soluble fusion protein (human) (P35968 20-764): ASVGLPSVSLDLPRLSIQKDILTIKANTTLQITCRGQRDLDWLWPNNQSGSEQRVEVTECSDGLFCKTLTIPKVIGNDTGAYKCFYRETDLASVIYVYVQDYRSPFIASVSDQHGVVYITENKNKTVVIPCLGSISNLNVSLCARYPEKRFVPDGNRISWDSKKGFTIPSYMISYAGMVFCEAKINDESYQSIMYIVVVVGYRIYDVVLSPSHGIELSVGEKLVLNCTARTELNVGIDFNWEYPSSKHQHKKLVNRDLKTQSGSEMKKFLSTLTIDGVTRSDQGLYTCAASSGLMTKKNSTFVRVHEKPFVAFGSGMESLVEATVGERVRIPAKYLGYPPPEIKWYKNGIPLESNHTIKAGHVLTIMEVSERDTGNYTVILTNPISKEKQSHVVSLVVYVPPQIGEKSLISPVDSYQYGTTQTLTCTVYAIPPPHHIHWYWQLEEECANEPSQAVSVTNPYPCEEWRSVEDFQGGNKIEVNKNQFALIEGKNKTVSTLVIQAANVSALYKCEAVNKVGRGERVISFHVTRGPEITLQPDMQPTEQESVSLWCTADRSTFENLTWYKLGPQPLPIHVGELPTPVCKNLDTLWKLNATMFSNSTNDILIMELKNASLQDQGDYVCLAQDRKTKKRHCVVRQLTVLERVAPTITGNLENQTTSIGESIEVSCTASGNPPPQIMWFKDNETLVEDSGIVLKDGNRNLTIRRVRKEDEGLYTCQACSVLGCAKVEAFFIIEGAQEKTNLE
Chain of cell-surface KDR (human) (P35968 20-1356): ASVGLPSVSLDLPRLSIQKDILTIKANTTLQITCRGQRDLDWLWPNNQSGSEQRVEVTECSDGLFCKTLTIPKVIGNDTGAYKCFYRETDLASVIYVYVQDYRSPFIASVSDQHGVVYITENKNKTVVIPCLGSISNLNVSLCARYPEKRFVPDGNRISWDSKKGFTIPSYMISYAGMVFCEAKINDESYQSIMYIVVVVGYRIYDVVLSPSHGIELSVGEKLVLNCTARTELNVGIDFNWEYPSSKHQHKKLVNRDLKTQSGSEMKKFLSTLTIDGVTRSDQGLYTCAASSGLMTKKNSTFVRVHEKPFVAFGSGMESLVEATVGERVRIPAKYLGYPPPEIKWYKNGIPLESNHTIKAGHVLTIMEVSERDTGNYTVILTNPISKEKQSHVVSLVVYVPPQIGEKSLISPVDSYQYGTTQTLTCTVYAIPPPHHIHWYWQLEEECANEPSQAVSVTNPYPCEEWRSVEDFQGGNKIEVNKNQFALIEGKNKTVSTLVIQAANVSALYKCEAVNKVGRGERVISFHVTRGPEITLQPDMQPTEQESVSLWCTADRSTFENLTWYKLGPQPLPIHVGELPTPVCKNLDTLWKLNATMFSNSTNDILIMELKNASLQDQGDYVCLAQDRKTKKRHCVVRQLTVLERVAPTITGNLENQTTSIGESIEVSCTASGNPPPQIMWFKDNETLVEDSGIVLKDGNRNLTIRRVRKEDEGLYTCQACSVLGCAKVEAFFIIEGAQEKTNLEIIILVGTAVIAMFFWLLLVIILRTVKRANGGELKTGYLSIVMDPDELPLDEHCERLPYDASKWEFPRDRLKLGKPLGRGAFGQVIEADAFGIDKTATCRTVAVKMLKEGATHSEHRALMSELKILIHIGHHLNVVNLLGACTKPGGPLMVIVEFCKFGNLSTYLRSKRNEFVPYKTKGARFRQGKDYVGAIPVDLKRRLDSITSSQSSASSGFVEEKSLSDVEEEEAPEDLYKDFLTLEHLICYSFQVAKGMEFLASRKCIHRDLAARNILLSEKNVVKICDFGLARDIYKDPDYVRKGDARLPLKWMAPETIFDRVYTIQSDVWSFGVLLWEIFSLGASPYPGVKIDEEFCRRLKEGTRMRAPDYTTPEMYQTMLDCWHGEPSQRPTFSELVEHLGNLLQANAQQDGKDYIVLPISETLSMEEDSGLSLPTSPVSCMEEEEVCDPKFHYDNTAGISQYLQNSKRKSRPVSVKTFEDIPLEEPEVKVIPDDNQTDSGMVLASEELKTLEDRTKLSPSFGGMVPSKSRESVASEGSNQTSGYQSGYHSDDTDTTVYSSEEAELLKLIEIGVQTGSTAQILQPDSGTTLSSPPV

ED50 of inhibition of VEGF-stimulated [3H]-TdR incorporation in HUVEC (cell-surface KDR (human)): 1.5 nM
Kd [1]: 0.27 nM
fold change of Kd against its Fab counterpart [1]: 5 fold
koff [1]: 3.7e-05 s⁻¹
kon [1]: 134000 M⁻¹ s⁻¹
IC50 (read off the curve) [2]: 1 nM
Substance: IMC-1C11 (antibody)
